For test [1], the target named is NRP-1. The test is described as follows: competition of CPQPRPLC phage binding to immobilized NRP-1 by soluble peptide.
The target of test [2] is VEGFR-1. The test is described as follows: competition of CPQPRPLC phage binding to immobilized VEGFR-1 by soluble peptide.

The values that follow come from patent US20120028880A1, “VEGFR-1/NRP-1 TARGETING PEPTIDES” (priority 2007, published 2012).

Square brackets hold non-standard residues; d marks the D form. Ends that are not written are not given here.

Sequence of NRP-1 (O14786 22-856): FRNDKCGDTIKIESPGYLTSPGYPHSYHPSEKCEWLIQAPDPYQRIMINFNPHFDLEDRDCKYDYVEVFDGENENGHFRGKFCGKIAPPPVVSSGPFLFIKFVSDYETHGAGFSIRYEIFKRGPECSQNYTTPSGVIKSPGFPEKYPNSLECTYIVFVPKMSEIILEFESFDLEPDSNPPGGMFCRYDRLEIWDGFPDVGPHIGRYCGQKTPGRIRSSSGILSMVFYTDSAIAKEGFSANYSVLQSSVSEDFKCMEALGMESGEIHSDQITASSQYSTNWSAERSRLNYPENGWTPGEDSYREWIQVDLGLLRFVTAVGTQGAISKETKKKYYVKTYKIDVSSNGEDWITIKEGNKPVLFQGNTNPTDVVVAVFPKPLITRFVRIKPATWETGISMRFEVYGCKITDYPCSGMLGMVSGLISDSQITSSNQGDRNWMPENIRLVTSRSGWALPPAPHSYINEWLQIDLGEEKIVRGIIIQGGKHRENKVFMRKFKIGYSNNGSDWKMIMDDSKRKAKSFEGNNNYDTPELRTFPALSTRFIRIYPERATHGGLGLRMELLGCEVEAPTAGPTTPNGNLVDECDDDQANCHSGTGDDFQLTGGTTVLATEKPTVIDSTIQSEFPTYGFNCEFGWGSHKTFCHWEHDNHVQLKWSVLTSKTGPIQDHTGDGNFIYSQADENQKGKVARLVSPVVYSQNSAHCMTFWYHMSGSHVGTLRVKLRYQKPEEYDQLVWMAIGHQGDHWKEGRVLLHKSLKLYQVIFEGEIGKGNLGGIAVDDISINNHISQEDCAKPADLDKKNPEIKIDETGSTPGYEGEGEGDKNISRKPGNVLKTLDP
Sequence of VEGFR-1 (P17948 27-758): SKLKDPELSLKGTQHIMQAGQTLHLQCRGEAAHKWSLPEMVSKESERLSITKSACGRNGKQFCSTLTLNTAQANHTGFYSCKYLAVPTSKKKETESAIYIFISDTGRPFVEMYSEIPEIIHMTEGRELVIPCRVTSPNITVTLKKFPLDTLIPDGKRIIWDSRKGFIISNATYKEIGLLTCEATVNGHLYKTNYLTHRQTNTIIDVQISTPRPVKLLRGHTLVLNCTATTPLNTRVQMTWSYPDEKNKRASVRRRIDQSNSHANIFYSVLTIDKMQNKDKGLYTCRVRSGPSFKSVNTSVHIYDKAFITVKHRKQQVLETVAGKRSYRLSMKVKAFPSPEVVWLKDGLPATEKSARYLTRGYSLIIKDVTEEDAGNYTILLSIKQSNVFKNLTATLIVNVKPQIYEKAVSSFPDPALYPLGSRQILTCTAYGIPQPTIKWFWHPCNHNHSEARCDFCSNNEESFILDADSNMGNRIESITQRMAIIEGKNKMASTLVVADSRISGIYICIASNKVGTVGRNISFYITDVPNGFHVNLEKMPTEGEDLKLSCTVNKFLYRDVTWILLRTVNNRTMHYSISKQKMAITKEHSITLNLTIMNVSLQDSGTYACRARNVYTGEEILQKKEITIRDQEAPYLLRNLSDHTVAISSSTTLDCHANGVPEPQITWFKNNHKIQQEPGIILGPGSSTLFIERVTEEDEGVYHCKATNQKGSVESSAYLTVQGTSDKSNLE

By IC50 is commonly meant the concentration that inhibits the measured activity by half. Read a high IC50 as weaker potency in that assay. On to [dL]-[dP]-[dR], for which the IC50 in test [1] and in test [2] was 1 to 10 pM each time.
